Experimental data: US20240041978A1, “LA PROTEIN AS A NOVEL REGULATOR OF OSTEOCLASTOGENESIS” (The U.S.A., as Represented by the Secretary, Department of …, priority 2021, published 2024)
Where a chain is given by its changes, count along the chain named. In names and notes the source's numbering stands.

T1: La protein (Lupus autoantigen), native, in lysates of fusing human osteoclasts (human, UniProt P05455 1-408, limits assumed)
T1 construct: Endogenous La from monocyte-derived human osteoclasts 3 days post-RANKL; also called native La; SSB
T1 sequence: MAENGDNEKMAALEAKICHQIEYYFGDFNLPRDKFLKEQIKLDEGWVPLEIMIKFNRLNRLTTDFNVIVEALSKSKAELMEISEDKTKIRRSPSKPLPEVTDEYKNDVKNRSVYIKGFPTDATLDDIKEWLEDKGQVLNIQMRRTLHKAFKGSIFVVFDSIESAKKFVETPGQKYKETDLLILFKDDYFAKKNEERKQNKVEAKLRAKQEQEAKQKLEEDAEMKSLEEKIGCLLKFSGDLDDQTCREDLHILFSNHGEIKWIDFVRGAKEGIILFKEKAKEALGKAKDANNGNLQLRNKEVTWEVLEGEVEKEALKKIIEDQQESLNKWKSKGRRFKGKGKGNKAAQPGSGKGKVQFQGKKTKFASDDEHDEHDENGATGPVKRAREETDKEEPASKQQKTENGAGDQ

B1: D371A,D374A La: uncleavable mutant of FL La, caspase cleavage sites disrupted, overexpressed from plasmid (protein, UniProt P05455 1-408, looked up, variant D371A D374A)
chain: T1 sequence with D371A, D374A
modifications: full-length
notes: uncleavable mutant of FL La, caspase cleavage sites disrupted, overexpressed from plasmid
B2: Annexin A1 (Anx A1), native, in fusing human osteoclasts (other, UniProt P04083 2-346, looked up)
chain: AMVSEFLKQAWFIENEEQEYVQTVKSSKGGPGSAVSPYPTFNPSSDVAALHKAIMVKGVDEATIIDILTKRNNAQRQQIKAAYLQETGKPLDETLKKALTGHLEEVVLALLKTPAQFDADELRAAMKGLGTDEDTLIEILASRTNKEIRDINRVYREELKRDLAKDITSDTSGDFRNALLSLAKGDRSEDFGVNEDLADSDARALYEAGERRKGTDVNVFNTILTTRSYPQLRRVFQKYTKYSKHDMNKVLDLELKGDIEKCLTAIVKCATSKPAFFAEKLHQAMKGVGTRHKALIRIMVSRSEIDMNDIKAFYQKMYGISLCQAILDETKGDYEKILVALCGGN
B3: Annexin A4 (Anx A4), native, in fusing human osteoclasts (other, UniProt P09525 2-319, looked up)
chain: ATKGGTVKAASGFNAMEDAQTLRKAMKGLGTDEDAIISVLAYRNTAQRQEIRTAYKSTIGRDLIDDLKSELSGNFEQVIVGMMTPTVLYDVQELRRAMKGAGTDEGCLIEILASRTPEEIRRISQTYQQQYGRSLEDDIRSDTSFMFQRVLVSLSAGGRDEGNYLDDALVRQDAQDLYEAGEKKWGTDEVKFLTVLCSRNRNHLLHVFDEYKRISQKDIEQSIKSETSGSFEDALLAIVKCMRNKSAYFAEKLYKSMKGLGTDDNTLIRVMVSRAEIDMLDIRAHFKRLYGKSLYSFIKGDTSGDYRKVLLVLCGGDD
B4: La 1-375: amino acids 1-375 of human La lacking NLS; recombinant protein or overexpressed from FLAG plasmid (protein, listed as Homo sapiens)
chain: MAENGDNEKMAALEAKICHQIEYYFGDFNLPRDKFLKEQIKLDEGWVPLEIMIKFNRLNRLTTDFNVIVEALSKSKAELMEISEDKTKIRRSPSKPLPEVTDEYKNDVKNRSVYIKGFPTDATLDDIKEWLEDKGQVLNIQMRRTLHKAFKGSIFVVFDSIESAKKFVETPGQKYKETDLLILFKDDYFAKKNEERKQNKVEAKLRAKQEQEAKQKLEEDAEMKSLEEKIGCLLKFSGDLDDQTCREDLHILFSNHGEIKWIDFVRGAKEGIILFKEKAKEALGKAKDANNGNLQLRNKEVTWEVLEGEVEKEALKKIIEDQQESLNKWKSKGRRFKGKGKGNKAAQPGSGKGKVQFQGKKTKFASDDEHDEHDE
B5: La 1-375 RNAΔ: La 1-375 with three point mutations impairing La domain RNA binding (protein, UniProt P05455 1-375, looked up, variant Q20A Y24A D33I)
chain: B4 chain with Q20A, Y24A, D33I

What was measured:
[1] = tested on: human monocyte-derived osteoclasts; experiment: Osteoclast fusion assay (number of fusion events, fluorescence microscopy); assay type: cell-based; settings: for osteoclast fusion (fusion events in syncytia with 3+ nuclei): overexpression from expression plasmid vs empty plasmid, human osteoclasts; for formation of multinucleated syncytia (osteoclast fusion): recombinant protein ~40 nM added end of day 2 post-RANKL, overnight
Procedure: Osteoclasts: Elutriated monocytes from healthy donors were obtained. Cells were plated at 2.9×10^5 per cm^2 in 35 mm dishes with polymer coverslip bottoms (Ibidi #81156) for imaging or 35 mm or 10 cm dishes for biochemical experiments in complete media [α-MEM supplemented with 10% Fetal Bovine Serum (FBS) and penicillin-streptomycin-L-glutamine (Gibco Invitrogene #12571063; #26140079 and #10378016, respectively)]. Monocytes were differentiated to M2 macrophages in the presence of 100 ng/ml M-CSF for 6 days and then differentiated with 100 ng/ml M-CSF and 100 ng/ml RANKL for 3 days unless indicated otherwise. RAW 264.7 cells (ATCC, Manassas, VA, #TIB-71) were maintained in DMEM supplemented with 10% FBS to a maximum of 8 passages. RAW 264.7 cells were differentiated to osteoclasts in the presence of 100 ng/ml murine RANKL for 5 days. To separate unfused mononucleated and fused, multinucleated RAW 264.7 cells into separate fractions, advantage was taken of the much stronger adherence of multinucleated cells to culture dish plastic. After washing in PBS, mixed RAW cultures (following RANKL differentiation) were left in Ca^2+ and Mg^2+ free PBS for 10 minutes at room temperature. Culture dishes were then tapped on the lab bench and a large portion of unfused, mononucleated RAW cells were released, and these released cells were collected via centrifugation. This process was repeated 2-4 times until dishes were left with a population of primarily fused, multinucleated syncytia. Mononucleated and multinucleated cell fractions were then processed for biochemical or imaging experiments as described below.
Constructs & Recombinant proteins & Transfection: Recombinant La 1-408, 1-375, 1-375 Q20A_Y24A_D33I, 1-187 and 188-375 were amplified with primers designed with overlapping sequences and inserted between NdeI/HindIII in the V78 pET28A E. coli expression vector, adding to each a N-terminal 6×his affinity tag. La 1-408 was expressed as a recombinant protein in E. coli and purified using IMAC columns by SD Biosciences (San Diego, CA). The remaining constructs were transformed into BL2 (DE3) chemically competent E. coli (Thermo Fisher Scientific) and protein expression was induced with IPTG. Cells were lysed with Bugbuster (Sigma), and 6×his-La proteins were affinity purified using HisPur Cobalt Spin columns (Thermo Fisher Scientific), each according to the manufacturer's instructions. Endotoxin contaminates were depleted from affinity purified 6×his-La proteins using Pierce high-capacity endotoxin removal columns (Thermo Fisher Scientific), according to the manufacturer's instructions. Proteins were then sterile filtered, aliquoted and kept at −80 C.
Plasmids were introduced into primary osteoclasts at day 2 of RANKL stimulation via jetPRIME (Polyplus Transfection). FLAG-La 1-408, FLAG-La 1-375 and FLAG-La 1-375 Q20A_Y24A_D33I plasmids were a gift of the Maraia Lab (NICHD). Briefly, SSB (UniProt P05455) was inserted between HindIII and BamHI the pFLAG-CMV2 vector (Sigma). “Uncleavable” La was produced by taking the FLAG-La 1-408 plasmid and making two point mutations at amino acids D371A and D374A, abrogating the caspase cleavage sites at the C-terminal region of the protein (Emory Integrated Genomics Core). siRNA were introduced into primary osteoclasts after 1 day of RANKL stimulation via Lipofectamine RNAiMAX (Thermo Fisher Scientific). Non-targeted (Cat #4390843) and SSB-targeted (Cat #4392420_ID:s13469) siRNA were introduced at a concentration of 5 ng/ml (Silencer Select, Ambion).
Fusion Assays: Osteoclast fusion in the culture systems was evaluated by fluorescence microscopy (Verma et al., J Biol Chem 293, 254-270, doi:10.1074/jbc.M117.809681 (2018)). Briefly, cells were fixed with 4% paraformaldehyde at timepoints of interest, permeabilized with 0.1% TRITON™ X-100 and blocked with 5% FBS. Cells were then stained with phallodin-ALEXAFLURO®488 and Hoechst to label cells' actin cytoskeleton and nuclei, respectively. […]

[2] = tested on: human, monocyte-derived osteoclasts; experiment: Bone resorption assay (fluoresceinamine-labeled chondroitin sulfate on calcium phosphate-coated plates); assay type: cell-based; settings: for bone resorption: overexpression, normalized to empty plasmid
Procedure: There is a relationship between osteoclast fusion and bone resorption (Makris and Saffar, Arch Oral Biol 27, 965-969, doi:10.1016/0003-9969(82)90104-2 (1982); Piper et al., Anat Embryol (Berl) 186, 291-299, doi:10.1007/BF00185977 (1992); Moller et al., Int J Mol Sci 21, doi:10.3390/ijms21176368 (2020)). It was hypothesized that by regulating osteoclast size, La also regulates bone resorption. This hypothesis was evaluated by differentiating osteoclasts on fluoresceinated calcium phosphate, a biomimetic of bone, and assessed osteoclast-dependent bone resorption by the release of fluorescein into the media (FIG. 5A). […] Overexpression of La 1-375 promoted bone resorption, while the uncleavable La mutant, D371,374A, had no effect (FIG. 5B).
Bone Resorption: Bone resorption was evaluated using bone resorption assay kits from Cosmo Bio USA according to the manufacturer's instructions. Briefly, fluoresceinamine-labeled chondroitin sulfate was used to label 24-well, calcium phosphate-coated plates. Human, monocyte-derived osteoclasts were differentiated as described above, using alpha MEM without phenol red. Media were collected at 4-5 days post RANKL addition, and fluorescence intensity within the media was evaluated as recommended by the manufacture.

[3] = target: T1, La protein (Lupus autoantigen), native, …; experiment: co-immunoprecipitation with α-La on magnetic beads from DTSSP-crosslinked osteoclast lysates, immunoblot
[4] = tested on: RAW 264.7 derived, murine osteoclasts; experiment: Osteoclast fusion assay in RAW 264.7 derived osteoclasts; assay type: cell-based; settings: overexpression from expression plasmid vs empty plasmid
Procedure: Osteoclasts: Elutriated monocytes from healthy donors were obtained. Cells were plated at 2.9×10^5 per cm^2 in 35 mm dishes with polymer coverslip bottoms (Ibidi #81156) for imaging or 35 mm or 10 cm dishes for biochemical experiments in complete media [α-MEM supplemented with 10% Fetal Bovine Serum (FBS) and penicillin-streptomycin-L-glutamine (Gibco Invitrogene #12571063; #26140079 and #10378016, respectively)]. Monocytes were differentiated to M2 macrophages in the presence of 100 ng/ml M-CSF for 6 days and then differentiated with 100 ng/ml M-CSF and 100 ng/ml RANKL for 3 days unless indicated otherwise. RAW 264.7 cells (ATCC, Manassas, VA, #TIB-71) were maintained in DMEM supplemented with 10% FBS to a maximum of 8 passages. […]
Fusion Assays: Osteoclast fusion in the culture systems was evaluated by fluorescence microscopy (Verma et al., J Biol Chem 293, 254-270, doi:10.1074/jbc.M117.809681 (2018)). […] Osteoclast fusion efficiency was evaluated as the number of fusion events between cells in these images, as described previously. Since regardless of the sequence of fusion events, the number of cell-to-cell fusion events required to generate syncytium with N nuclei is always equal to N−1, the fusion number index was calculated as Σ(Ni−1)=Ntotal−Nsyn, where Ni=the number of nuclei in individual syncytia and Nsyn=the total number of syncytia. […]

Row | binding result [3] | Molecule | osteoclast fusion (fusion events in syncytia with 3+ nuclei) [1] | bone resorption [2] | osteoclast fusion (fusion events in syncytia with 3+ nuclei) [4] | formation of multinucleated syncytia (osteoclast fusion) [1] | osteoclast bone resorption ([2]; 40 nM recombinant protein, extracellular addition, vs PBS)
1 | – | B1 | no effect | no effect | – | – | –
2 | no binding | B2 | – | – | – | – | –
3 | no binding | B3 | – | – | – | – | –
4 | – | B4 | greatly promoted | promoted | greatly promoted | significantly promoted | dramatically increased
5 | – | B5 | – | – | promoted formation of multinucleated osteoclasts as robustly as wild type La 1-375 | significantly promoted | –
